Test results: patent publication US20230047413A1 (Janssen / Centocor, published 2023)

Tests used:
[1] = biological target: T1, PHF-tau (paired helical filament tau isolated from Alzheimer's disease brain) (human, UniProt P10636-8 2-441, limits assumed, hyper-phosphorylated, aggregated; sites not listed for the preparation); assay: SPR ProteOn, PHF-tau on chip
T1 construct: also called enriched PHF-tau; ePHF-tau

[2] = biological target: T2, tau phospho-peptide of the direct ELISA of Example 11; assay: direct ELISA, peptide coated
T2 construct: also called pT217 peptide; pT212/pT217 peptide
Description: (§1) Binding to tau phospho-peptide was analysed by ELISA where peptide (10 ng/mL) was directly coated to the plate overnight. […] After incubation with antibodies, plates were washed and 50 μL per well of HRPO labelled anti-Fab antibody (Jackson Immunoresearch laboratories) (diluted 1:10000 in blocking buffer). After another washing step detection was performed with “One step” TMB (Thermo Scientific) according to the manufacturers' instructions. Plates were analysed in EnVision® 2102 Multilabel Reader (Perkin Elmer, Waltham, Mass., USA). Binding curves were generated using GraphPad Prism7.0 software.

[3] = biological target: T1, PHF-tau (paired helical filament tau …); assay: SPR ProteOn, PHF-tau capture-coupled via HT7, bivalent model
Description: (§2) Affinity matured monoclonal antibodies were tested for binding to PHF-tau isolated from Alzheimer's disease brain.
(§3) A GLC sensor chip was covalently immobilized with a mouse anti-tau antibody, HT7 (ThermoFisher, catalog# MN1000) using the vendor recommended protocol for amine-coupling chemistry (˜5000 response units, RU). The coupling buffer was 10 mM, pH 4.5 sodium acetate. PHF-tau was prepared by 2-times centrifugation at 5000×g in 5° C. for 10 min. […] After capture-coupling, the surface was activated and deactivated to generate a homogenous PHF-tau surface for antibody binding studies. The anti-tau antibodies and their Fabs (prepared in running buffer, 0.024-75 nM at 5-fold dilutions) were injected at 50 μL/min over the PHF-tau surface to measure binding. The association and dissociation profiles were monitored for 4 minutes and 2 hours, respectively. After dissociation, the sensor chip was regenerated using multiple injections of 10 mM Glycine pH 2.0 and the running buffer. A reference surface (without any PHF-tau) was used to monitor non-specific binding of the injected mAbs or Fabs. HT7 antibody was used as a positive control. The binding sensorgrams for mAbs were fit using a bivalent binding model where the apparent affinity or avidity-driven binding (KD) was reported as the ratio of off-rate and on-rate (koff/kₒₙ). A 1:1 Langmuir binding model was used for kinetics analysis of Fabs.

[4] = biological target: T1, PHF-tau (paired helical filament tau …); assay: SPR ProteOn, PHF-tau capture-coupled via HT7, bivalent model; lower end of range
Description: as §2
as §3, with “A 1:1 Langmuir binding model was used for kinetics analysis of Fabs.” left out

[5] = biological target: T1, PHF-tau (paired helical filament tau …); assay: SPR ProteOn, PHF-tau capture-coupled via HT7, bivalent model; upper end of range
Description: as §2
as §3, with “A 1:1 Langmuir binding model was used for kinetics analysis of Fabs.” left out

[6] = biological target: T1, PHF-tau (paired helical filament tau …); assay: SPR ProteOn, PHF-tau capture-coupled via HT7, bivalent model; lower end of range; lower end of range
Description: as §2
as §3, with “A 1:1 Langmuir binding model was used for kinetics analysis of Fabs.” left out

[7] = biological target: T1, PHF-tau (paired helical filament tau …); assay: SPR ProteOn, PHF-tau capture-coupled via HT7, bivalent model; upper end of range; upper end of range
Description: as §2
as §3, with “A 1:1 Langmuir binding model was used for kinetics analysis of Fabs.” left out

[8] = biological target: T2, tau phospho-peptide of the direct ELISA …; assay: direct ELISA on plate-coated tau phospho-peptide (10 ng/mL), detection with HRPO-labelled anti-Fab antibody
Description: as §1

[9] = biological target: T3, Peptide-2 (human, phosphothreonine 212, phosphothreonine 217 (tau 2N4R numbering); short chain biotin (SCBiot) and dPEG4 at the N-terminus; amide at the C-terminus); assay: SPR ProteOn, peptide captured, Fab as analyte
T3 construct: also called pT212/pT217-tau peptide (Peptide-2)
Description: (§4) A subset of HFA-PT3 monoclonal antibody variants, selected based on biophysical characterization and ELISA binding to PHF, were analyzed by Surface Plasmon Resonance (SPR) with a ProteOn XPR36 for binding to the following phosphopeptides: pT212/pT217-tau peptide (Peptide-2, SEQ ID NO: 48) and pT212-tau peptide (Peptide-8, SEQ ID NO: 54). All experiments were performed at 25° C. using PBST, pH 7.4, (Bio-Rad Cat#176-2720) as both running buffer and sample dilution buffer.
(§5) Fab/peptide binding. Biotinylated peptide was captured on a neutravidin-coated NLC biosensor chip pre-conditioned with PBST, and Fab was flowed over the surface to measure kinetic parameters. Approximately 5-10 RU of peptide was captured on the chip surface by diluting peptide to 10 ng/mL in PBST and injecting over the flow channels at 30 μL/min for 100 s. Serial dilutions of PT3 Fab (1.1 nM to 90 nM) were injected at 60 μL/min for 3 minutes (association phase), followed by 300 s of buffer only (dissociation phase).
(§6) Data were double referenced by subtraction of the interspot response, and the curves generated by the buffer only injection. The chip surface was regenerated with 0.85% phosphoric acid, followed by PBST injection before the next antibody titration injection. Data processing and analysis were performed using instrument software. The data were fit using a simple Langmuir 1:1 binding model.

[10] = biological target: T1, PHF-tau (paired helical filament tau …); assay: SPR ProteOn, PHF-tau capture-coupled via HT7, 1:1 model
Description: A subset of HFA-PT3 monoclonal antibodies was tested for binding to PHF-tau isolated from Alzheimer's disease brain. All interactions were studied at 25° C. using PBS pH 7.4, supplemented with 3 mM EDTA, and 0.005% Tween 20 as running or system buffer. HT7 (Pierce, catalog #MN1000), a mouse anti-tau antibody, was used as a positive control.
The interaction of anti-tau monoclonal antibodies with PHF-tau was analyzed by ProteOn using a biosensor surface prepared by capture-coupling PHF-tau using HT7 as the capture reagent. PHF-tau was prepared by 2-times centrifugation at 5000×g at 5° C. for 10 min; the supernatant from the second centrifugation was then diluted 1/40 in running buffer. To prepare the chip, HT7 was covalently immobilized to the surface of a GLC (ProteOn) sensor chip using the manufacturer's instructions for amine-coupling chemistry (˜5000 response units (RU)). The coupling buffer was 10 mM sodium acetate, pH 4.5. After HT7 immobilization, PHF-tau was injected and captured (˜300 RU) by HT7. After capture, PHF-tau was covalently immobilized to the sensor chip by activation of the chip using the manufacturer's instructions for amine-coupling chemistry. Remaining reactive sites were blocked by the injection of ethanolamine. After preparation and stabilization of the PHF-tau-modified surface and reference surface (containing no antigen), the anti-tau antibodies were diluted in the running buffer and injected in solution (0.12-75 nM in 5-fold dilutions). The association was monitored for 3 minutes (120 μL injected at 40 μL/min). The dissociation was monitored for 15 minutes. Regeneration of the sensor surface was performed using 10 mM Gly pH 2.0. The data for monoclonal antibodies were fit using a bivalent binding model where the apparent affinity (KD) was reported as the ratio of koff/kₒₙ. A Langmuir 1:1 binding model was used for kinetics analysis of Fabs.

[11] = biological target: T1, PHF-tau (paired helical filament tau …); assay: as above; remark: listed apart in the source
Description: as §2, §3

[12] = biological target: T3, Peptide-2; assay: SPR ProteOn, peptide captured, Fab as analyte; range of n=2
Description: as §4, §5, §6

[13] = biological target: T2, tau phospho-peptide of the direct ELISA …; assay: direct ELISA on plate-coated tau phospho-peptide, Fabs
Description: as §1

[14] = biological target: T3, Peptide-2; assay: SPR ProteOn, peptide captured, Fab as analyte; range of n=2; lower end of n=2 range
Description: as §4, §5, §6

[15] = biological target: T3, Peptide-2; assay: SPR ProteOn, peptide captured, Fab as analyte; range of n=2; upper end of n=2 range
Description: as §4, §5, §6

T1 sequence (P10636 other isoform, or with tags, fused parts or gaps limits assumed): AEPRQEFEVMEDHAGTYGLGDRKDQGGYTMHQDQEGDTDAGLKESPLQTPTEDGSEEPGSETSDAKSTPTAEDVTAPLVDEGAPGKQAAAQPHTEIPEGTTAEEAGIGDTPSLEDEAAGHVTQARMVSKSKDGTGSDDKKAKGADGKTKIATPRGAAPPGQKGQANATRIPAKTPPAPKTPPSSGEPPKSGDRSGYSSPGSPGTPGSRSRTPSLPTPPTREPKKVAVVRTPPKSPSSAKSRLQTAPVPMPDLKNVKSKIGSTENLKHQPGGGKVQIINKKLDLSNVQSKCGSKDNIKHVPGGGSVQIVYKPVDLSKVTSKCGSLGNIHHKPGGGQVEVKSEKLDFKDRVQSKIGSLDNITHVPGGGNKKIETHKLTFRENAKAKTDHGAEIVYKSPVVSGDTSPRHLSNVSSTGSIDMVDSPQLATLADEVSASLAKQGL
T3 sequence (peptide, as listed by the source): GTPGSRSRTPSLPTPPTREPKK

B1: B711 (antibody, human IgG1, kappa, V domains shown)
VH: QVQLVESGGGVVQPGRSLRLSCAASGFTFTSYAMSWVRQAPGKGLEWVASITKGGNTYYADSVKGRFTISRDNSKNTLYLQMNSLRAEDTAVYYCARGWGIYGWFAYWGQVTLVTVSS
VL: DIQMTQSPSSLSASVGDRVTITCKASQDINRWLNWFQQKPGKAPKSLIYRANRLLDGVPSRFSGSGSGTDFTLTISSLQPEDFATYYCLQYDEFPLTFGQGTKLEIKR
notes: also called PT1B711
Q: Which results are given for B1?
A: fold improvement in on-rate compared to the parent antibody (B296) [1]: 3 fold; EC50 [2]: 0.0707 nM; Kd [3]: 0.0018 nM; koff [3]: 1.13e-05 s⁻¹; kon [3]: 6.17e+06 M⁻¹ s⁻¹; Kd [4]: 0.0016 nM; koff [4]: 1.08e-05 s⁻¹; Kd [5]: 0.0021 nM; koff [5]: 1.17e-05 s⁻¹; kon [6]: 5.72e+06 M⁻¹ s⁻¹; kon [7]: 6.61e+06 M⁻¹ s⁻¹; EC50 (read off the curve) [8]: ~0.04 nM

B2: B324 (Fab of B296) (Fab, V domains shown)
VH: QVQLVESGGGVVQPGRSLRLSCAASGFTFSSYAMSWVRQAPGKGLEWVASISKGGNTYYADSVKGRFTISRDNSKNTLYLQMNSLRAEDTAVYYCARGWGDYGWFAYWGQVTLVTVSS
VL: DIQMTQSPSSLSASVGDRVTITCKASQDINRYLNWFQQKPGKAPKSLIYRANRLLDGVPSRFSGSGSGTDFTLTISSLQPEDFATYYCLQYDEFPLTFGQGTKLEIK
notes: also called M324; B296 Fab
Q: Which “fold slower off-rate than B326” value [1] does the source give for B2 here?
A: 1.7 fold

Q: And the “fold stronger affinity (KD) than B326” value [1]?
A: 1.3 fold

Q: And the “fold weaker KD than the mouse PT3 parent Fab B187” value [1]?
A: 2.5 fold

Q: What about the EC50 [2] of the same binder?
A: 0.341 nM

Q: And the Kd [9]?
A: 0.305 nM

Q: And the koff [9]?
A: 0.000174 s⁻¹

Q: And the kon [9]?
A: 610000 M⁻¹ s⁻¹

Q: And the Kd [10]?
A: 0.167 nM

Q: What about the koff [10] of the same binder?
A: 0.000136 s⁻¹

Q: And the kon [10]?
A: 816000 M⁻¹ s⁻¹

Q: What about the Kd [11] of the same binder?
A: 0.0632 nM

Q: What about the koff [11] of the same binder?
A: 9.03e-05 s⁻¹

Q: What about the kon [11] of the same binder?
A: 1.43e+06 M⁻¹ s⁻¹

Q: What about the Kd [12] of the same binder?
A: 0.234 to 0.376 nM

Q: What about the kon [12] of the same binder?
A: 427000 M⁻¹ s⁻¹

Q: And the “EC50 (read off the curve)” value [13]?
A: ~0.5 nM

Q: And the koff [14]?
A: 0.000161 s⁻¹

Q: What about the koff [15] of the same binder?
A: 0.000186 s⁻¹

Q: What about the kon [15] of the same binder?
A: 793000 M⁻¹ s⁻¹
